In the supplement of paper PMC10065799, “High-throughput profiling of sequence recognition by tyrosine kinases and SH2 domains using bacterial peptide display” (eLife, 2023):

What follows are sequences tested on c-Src (assay: phosphorylation enrichment, bacterial display (enrichment ratio); higher = better substrate or ligand; peptides without Tyr show the background).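 Further: 11-residue human phosphosite peptides and single-mutation variants displayed on the E. coli surface, counted by deep sequencing, each peptide's frequency after selection divided by its frequency in the unselected input library; frequency after pTyr selection over input frequency; kinase dosed for 20-30% of maximal phosphorylation in three min.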
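Wherever SH2 binding enrichment of the phosphorylated peptide, bacterial display is given: peptide library displayed on the E. coli surface as eCPX fusions, selected cells deep-sequenced, score is each peptide's frequency after selection divided by its frequency in the input.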

Row | Sequence | phosphorylation enrichment
1 | GGGGSYNNFGN [HNRNPA1_Y312_D314N] | 0.325
2 | YTHSDYQYSQR [PKP2_Y166] | 0.434
3 | MPLTKYLKRIK [CNGB3_Y200_E199K] | 0.391
4 | KVGPGSLGSGG [RET_Y826_Y826S] | 0.374
5 | CNPLCYPTIMI [OR6K6_Y160_R159C] | 0.416
6 | ATHRGYDLDNP [MMUT_Y146_S148L] | 0.377
7 | RQSHNYLGGFA [SYK_Y47_R45H] | 0.394
8 | NGQAVYAACQT [XDH_Y1092] | 3.51
9 | HSGLAYTMERS [GLUD1_Y512] | 0.763
10 | LEFGDCHPLKP [VPS35L_Y32_Y32C] | 0.602
11 | LSSNLYFRWLT [CNGA3_Y168_P163L_YF] | 1.21
12 | RLTEGYTGPFK [ZNF862_Y181_I178T] | 0.423
13 | ILTYKYLQKPM [KIT_Y547] | 0.521
14 | EREYKYGAHNY [OAT_Y50] | 0.394
15 | FRPHLYGTPSR [ADGRE2_Y670_S665F] | 0.572
16 | DAICYYRMENA [NPHS2_Y195] | 3.12
17 | VRFMANTDETF [F8_Y450_Y450N] | 0.44

Row | Sequence | phosphorylation enrichment
18 | ALDHKYHGGGG [HBB_Y146_A143D] | 0.372
19 | TLKVGYTEKQR [EPHA3_Y659] | 0.328
20 | PGVDRYSLGTS [C5orf42_Y1451] | 0.737
21 | HGVSSYDTVIS [LDLR_Y465] | 0.441
22 | QRCYVYYYSYL [PTEN_Y176_R173C] | 3.53
23 | HQKKPYCHTHN [NRAP_Y53_A56T] | 0.794
24 | INVTIYGKTFR [EFHC1_Y177_I174V] | 0.641
25 | RRAKGYPIDLY [ITGB2_Y125] | 1.28
26 | RKELFYKADGE [SERPINC1_Y272] | 0.63
27 | KDGNGYISAAE [CALM1_Y100] | 0.416
28 | SRDDYYETIAM [NPY1R_Y347_D346Y] | 0.656
29 | PSQRRNVFFFS [PTEN_Y174_Y174N_YF] | 0.591
30 | ALRASYTPSPA [ESS2_Y418] | 0.369
31 | PINLFYLMDLS [ITGB2_Y131_D128N_YF] | 1.11
32 | MKGDFYCFLAE [YWHAG_Y131_R132C_YF] | 0.592
33 | TSPKSCPSQKH [CAP2_Y316_Y316C] | 0.415

Each sequence was assayed against Grb2 SH2 (UniProt P62993) (assay: SH2 binding enrichment of the phosphorylated peptide, bacterial display (enrichment ratio); higher = better substrate or ligand; peptides without Tyr show the background).
Sequence of Grb2 SH2 (P62993 whole entry, looked up): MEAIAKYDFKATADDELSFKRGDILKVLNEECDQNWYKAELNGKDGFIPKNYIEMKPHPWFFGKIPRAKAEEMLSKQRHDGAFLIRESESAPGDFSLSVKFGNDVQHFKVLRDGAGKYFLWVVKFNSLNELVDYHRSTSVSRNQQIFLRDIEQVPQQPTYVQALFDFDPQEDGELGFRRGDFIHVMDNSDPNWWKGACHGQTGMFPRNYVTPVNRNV

Row | Sequence | SH2 binding enrichment
34 | GGGGSYNNFGN [HNRNPA1_Y312_D314N] | 0.805
35 | YTHSDYQYSQR [PKP2_Y166] | 0.785
36 | MPLTKYLKRIK [CNGB3_Y200_E199K] | 1.27
37 | KVGPGSLGSGG [RET_Y826_Y826S] | 0.778
38 | CNPLCYPTIMI [OR6K6_Y160_R159C] | 0.622
39 | ATHRGYDLDNP [MMUT_Y146_S148L] | 0.721
40 | RQSHNYLGGFA [SYK_Y47_R45H] | 0.901
41 | NGQAVYAACQT [XDH_Y1092] | 0.685
42 | HSGLAYTMERS [GLUD1_Y512] | 0.698
43 | LEFGDCHPLKP [VPS35L_Y32_Y32C] | 0.963
44 | LSSNLYFRWLT [CNGA3_Y168_P163L_YF] | 0.655
45 | RLTEGYTGPFK [ZNF862_Y181_I178T] | 1.14
46 | ILTYKYLQKPM [KIT_Y547] | 0.729
47 | EREYKYGAHNY [OAT_Y50] | 0.927
48 | FRPHLYGTPSR [ADGRE2_Y670_S665F] | 1.98
49 | DAICYYRMENA [NPHS2_Y195] | 0.952
50 | VRFMANTDETF [F8_Y450_Y450N] | 0.645

Row | Sequence | SH2 binding enrichment
51 | ALDHKYHGGGG [HBB_Y146_A143D] | 0.863
52 | TLKVGYTEKQR [EPHA3_Y659] | 1.08
53 | PGVDRYSLGTS [C5orf42_Y1451] | 0.576
54 | HGVSSYDTVIS [LDLR_Y465] | 0.936
55 | QRCYVYYYSYL [PTEN_Y176_R173C] | 0.927
56 | HQKKPYCHTHN [NRAP_Y53_A56T] | 1.45
57 | INVTIYGKTFR [EFHC1_Y177_I174V] | 0.76
58 | RRAKGYPIDLY [ITGB2_Y125] | 0.707
59 | RKELFYKADGE [SERPINC1_Y272] | 0.858
60 | KDGNGYISAAE [CALM1_Y100] | 0.742
61 | SRDDYYETIAM [NPY1R_Y347_D346Y] | 0.589
62 | PSQRRNVFFFS [PTEN_Y174_Y174N_YF] | 0.769
63 | ALRASYTPSPA [ESS2_Y418] | 0.893
64 | PINLFYLMDLS [ITGB2_Y131_D128N_YF] | 0.772
65 | MKGDFYCFLAE [YWHAG_Y131_R132C_YF] | 0.725
66 | TSPKSCPSQKH [CAP2_Y316_Y316C] | 0.971
